Target: SpyTag fused to an elastin-like polypeptide with a C-terminal cysteine
Experiment: core-shell assembly of protein-coated particles

SpyCatcher fused to an elastin-like polypeptide with a C-terminal cysteine (designed binder)
percent of the core aggregate surface occupied by green (shell) particles: 60%

Reference: publication PMC5672941
